Measured values taken from patent KR20130126534A.

Biological target: TNF-α
Assay: ELISA, TNF-α coated 100 ng/well, protein titrated from 100 nM, anti-Human Fc-HRP

In the case of “TNFR2 (단독) (from UniProt P20333 23-252) (Fc fusion)”, the Kd is reported as 0.068 nM.
